Source: paper PMC10412687

Experiments:
[1] = molecular target: RNase E C-terminal domain (residues 451-898) with C-terminal eYFP (Caulobacter crescentus); assay: partitioning of a fluorescent client into condensates (fluorescence microscopy), peptide competition; PNPase incubated with peptide (GWW or scrambled, 0 to 200 µM) before adding RNase E to form droplets; 20 mM Tris pH 7.5, 1 mM MgCl2, 10 mM Na2HPO4 pH 7.5, 100 mM NaCl (120 mM NaCl in Fig. S2), 10% PEG 8000 (Figs. S2, S3)
[2] = molecular target: RNase E C-terminal domain (residues 451-898) with C-terminal eYFP (Caulobacter crescentus); assay: partitioning of a fluorescent client into condensates (fluorescence microscopy); 20 µM RNase E CTD-eYFP (or ∆PNP-BS) condensates as scaffold, mCherry-labelled client; 20 mM Tris pH 7.5, 1 mM MgCl2, 10 mM Na2HPO4 pH 7.5, 100 mM NaCl, 10% PEG 8000; 30 min at room temperature; partitioning ratio = mean droplet signal / mean non-droplet signal (Figs. 2, S1)
[3] = molecular target: RNase E C-terminal domain (residues 451-898) with C-terminal eYFP (Caulobacter crescentus); assay: partitioning of a fluorescent client into condensates (fluorescence microscopy); RNase E CTD condensates as scaffold, PNPase-mCherry variants as clients; 20 mM Tris pH 7.5, 20 mM MgCl2, 4 mM Na2HPO4 pH 7.5, 70 mM NaCl, 0.5 mM DTT; 30 min at room temperature; partitioning ratio (Fig. 3)

Molecule	partitioning ratio (without peptide) [1]	partitioning ratio with 100 µM GWW peptide [1]	partitioning ratio [2]	partitioning ratio [3]
PNPase-mCherry as used in the peptide competition and poly(A) recruitment microscopy (from UniProt Q9AC32 1-712) (enzyme)	2.8	1.7	–	–
PNPase-S439A/S440A/S441A-mCherry (PNPase active site mutant) (enzyme) MFDIKRKTIEWGGKTLVLETGRIARQADGAVLATMGETVVLATAVFAKSQKPGQDFFPLTVNYQEKTFAAGKIPGGFFKREGRPSEKETLVSRLIDRPIRPLFVKGFKNEVQVVVTVLQHDLENDPDILGMVAASAALCLSGAPFMGPIGAARVGWVDGAYVLNPTLDEMKESKMDLVVAGTADAVMMVESEIQELSEEIVLGGVNFAHQQMQAVIDAIIDLAEHAAKEPFAFEPEDTDAIKAKMKDLVGADIAAAYKIQKKQDRYEAVGAAKKKAIAALGLSDENPTGYDPLKLGAIFKELEADVVRRGILDTGLRIDGRDVKTVRPILGEVGILPRTHGSALFTRGETQAIVVATLGTGDDEQFIDALEGTYKESFLLHYNFPPYSVGETGRMGSPGRREIGHGKLAWRALRPMLPTKEDFPYTIRLVSEITESNGAAAMATVCGSSLAMMDAGVPLVRPVSGIAMGLILEQDGFAVLSDILGDEDHLGDMDFKVAGTSEGLTSLQMDIKIAGITPAIMEQALAQAKEGRAHILGEMNKAMDAPRADVGDFAPKIETINIPTDKIREVIGSGGKVIREIVATTGAKVDINDDGVVKVSASDGAKIKAAIDWIKSITDEAEVGKIYDGKVVKVVDFGAFVNFFGAKDGLVHVSQISNERVAKPSDVLKEGQMVKVKLLGFDDRGKTKLSMKVVDQETGEDLSKKEAAAEEA	–	–	5.7	4.4
PNPase-V104A/E224A/F233A-mCherry (enzyme) MFDIKRKTIEWGGKTLVLETGRIARQADGAVLATMGETVVLATAVFAKSQKPGQDFFPLTVNYQEKTFAAGKIPGGFFKREGRPSEKETLVSRLIDRPIRPLFAKGFKNEVQVVVTVLQHDLENDPDILGMVAASAALCLSGAPFMGPIGAARVGWVDGAYVLNPTLDEMKESKMDLVVAGTADAVMMVESEIQELSEEIVLGGVNFAHQQMQAVIDAIIDLAAHAAKEPFAAEPEDTDAIKAKMKDLVGADIAAAYKIQKKQDRYEAVGAAKKKAIAALGLSDENPTGYDPLKLGAIFKELEADVVRRGILDTGLRIDGRDVKTVRPILGEVGILPRTHGSALFTRGETQAIVVATLGTGDDEQFIDALEGTYKESFLLHYNFPPYSVGETGRMGSPGRREIGHGKLAWRALRPMLPTKEDFPYTIRLVSEITESNGSSSMATVCGSSLAMMDAGVPLVRPVSGIAMGLILEQDGFAVLSDILGDEDHLGDMDFKVAGTSEGLTSLQMDIKIAGITPAIMEQALAQAKEGRAHILGEMNKAMDAPRADVGDFAPKIETINIPTDKIREVIGSGGKVIREIVATTGAKVDINDDGVVKVSASDGAKIKAAIDWIKSITDEAEVGKIYDGKVVKVVDFGAFVNFFGAKDGLVHVSQISNERVAKPSDVLKEGQMVKVKLLGFDDRGKTKLSMKVVDQETGEDLSKKEAAAEEA	–	–	–	1
